Target: T1, biotinylated TGF-β1 (R&D Systems, Catalog #NFTG0) (UniProt P01137 279-390, biotinylated (sites not given))
T1 construct: Detection reagent of the sandwich ELISA, 1:50 diluted in PBS
Experiment: sandwich ELISA, simultaneous binding of EDB-FN-6x His (coated) and biotinylated TGF-β1

T1 sequence (P01137 279-390 limits assumed): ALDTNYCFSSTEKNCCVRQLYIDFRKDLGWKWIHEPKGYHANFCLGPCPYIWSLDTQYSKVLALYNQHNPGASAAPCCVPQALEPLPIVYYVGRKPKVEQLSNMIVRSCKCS

B1: Anti-EDB-FN scFv-TGFβ Trap (other)
chain: EVQLLESGGGLVQPGGSLRLSCAASGFTFSSFSMSWVRQAPGKGLEWVSSISGSSGTTYYADSVKGRFTISRDNSKNTLYLQMNSLRAEDTAVYYCAKPFPYFDYWGQGTLVTVSSGGGGSGGGGSGGGGSEIVLTQSPGTLSLSPGERATLSCRASQSVSSSFLAWYQQKPGQAPRLLIYYASSRATGIPDRFSGSGSGTDFTLTISRLEPEDFAVYYCQQTGRIPPTFGQGTKVEIKSSSSGSSSSGSSSSGIPPHVQKSVNNDMIVTDNNGAVKFPQLCKFCDVRFSTCDNQKSCMSNCSITSICEKPQEVCVAVWRKNDENITLETVCHDPKLPYHDFILEDAASPKCIMKEKKKPGETFFMCSCSSDECNDNIIFSEEYNTSNPD
notes: L19 scFv fused onto the TGFβ Trap without Fc; also called Anti-EDB-FN scFv-TGFβ Trap without Fc fusion
B1: binds.
